# Results: patent US20140363427A1 (CRUCELL HOLLAND B V, published 2014)
# Where two headings read alike, the source gives them in different places.
# B1: Fab 14G3 (Fab, V domains shown)
# VH: QVQLQESGPGLVKPSQTLSLTCTVSGASISSDNHYWSWIRQPPGKGLEWIASIYYTGGTNYNPSLKSRLALSIDTSGDQFSLKLSSVTAADTAVYYCVRGLFFITARPYWYFDLWGRGTLVAVSS
# VL: DVVMTQTPLSLSVTPGEPASISCRSSQSLLDSDDGNTYLDWYLQKPGQSPQLLIYTLSYRASGVPDRFSGSGSGTDFTLKISRVEADDVGIYYCMQRMEFPFTFGQGTRLDIKR
# B2: Motavizumab IgG (antibody, V domains shown)
# VH: QVTLRESGPALVKPTQTLTLTCTFSGFSLSTAGMSVGWIRQPPGKALEWLADIWWDDKKHYNPSLKDRLTISKDTSKNQVVLKVTNMDPADTATYYCARDMIFNFYFDVWGQGTTVTVSS
# VL: DIQMTQSPSTLSASVGDRVTITCSASSRVGYMHWYQQKPGKAPKLLIYDTSKLASGVPSRFSGSGSGTEFTLTISSLQPDDFATYYCFQGSGYPFTFGGGTKVEIK
# B3: IgG form of 30D8 (antibody, V domains shown)
# VH: EVQLLQSGAELKKPGASVKISCKTSGFTFSGHTIAWVRQAPGQGLEWMGWVSTNNGNTEYAQKIQGRVTMTMDTSTSTVYMELRSLTSDDTAVYFCAREWLVMGGFAFDHWGQGTLLTVSS
# VL: QSVLTQASSVSVAPGQTARITCGANNIGSQNVHWYQQKPGQAPVLVVYDDRDRPSGIPDRFSGSNSGNTATLTISRVEAGDEADYYCQVWDSSRDQAVIFGGGTKLTVLG
# notes: also called IgG 30D8; 30D8 Mab
# Legend:
# [1] = target: T1, native RSV F protein from the RSV A2 strain (Respiratory Syncytial Virus strain A2, UniProt P03420 26-574); assay: cell-based or functional assay
# [2] = target: T2, recombinant RSV F protein, strain A2, extracellular domain (Respiratory Syncytial Virus strain A2, UniProt P03420 26-524); assay: ELISA, purified Fab, estimated EC50
# T2 construct: also called RSV F1 lysate (recombinant); RSV F lysate
# [3] = target: T1, native RSV F protein from the RSV A2 …; assay: cell-based or functional assay; remark: listed apart in the source
# F protein of RSV B-1 = F protein of RSV B-1 (respiratory syncytial virus B-1, UniProt O36634 26-574); assay: cell-based or functional assay
# [4] = target: F protein of RSV B-wash (strain 18537) (respiratory syncytial virus B, strain …, UniProt P13843 26-574); assay: cell-based or functional assay
# [5] = target: F protein of the parental RSV A2 strain (Example 11) (Respiratory Syncytial Virus strain A2, UniProt P03420 26-574); assay: cell-based or functional assay
# [6] = target: T1, native RSV F protein from the RSV A2 …; assay: ELISA, IgG titrated, estimated EC50
# [7] = target: F protein of the parental RSV A2 strain (Example 11) (Respiratory Syncytial Virus strain A2, UniProt P03420 26-574); assay: cell-based or functional assay; remark: listed apart in the source
# RSV F A2 mutant V278M = target: T3, RSV F A2 mutant V278M (human RSV, A2 strain, UniProt P03420 26-574); assay: mutant F in HEK 293 cells
# T3 construct: whole, on cells
Binder,"ED50, plaque reduction, RSV A2 [1] [nM]","ED50, plaque reduction, RSV A2 (mass concentration) [1] [µg/mL]",EC50 [2] [nM],"ED50, plaque reduction, RSV A2 [3] [nM]","ED50, plaque reduction, RSV B-1 (F protein of RSV B-1) [nM]","ED50, plaque reduction, RSV B/wash [4] [nM]","ED50, plaque reduction, RSV A2 parental [5] [nM]",EC50 [6] [nM],"ED50, plaque reduction, RSV A2 parental [7] [nM]",ratio of binding 58C5/30D8 (RSV F A2 mutant V278M)
B1,3.4,0.172,8.2,–,–,–,–,–,–,–
B2,–,–,–,0.36,0.833,2.9,0.519,0.027,–,–
B3,–,–,–,0.089,0.055,0.115,–,–,0.096,3.1
